Measured values: patent publication US20150023988A1
Like-named read-outs stand apart in the source and are kept apart here.

Columns and labels:
Test in all cases: cell-based or functional assay
[1] = target: human voltage-gated sodium channel Nav1.4 (human) (UniProt P35499)
[2] = target: human voltage-gated sodium channel Nav1.5 (human) (UniProt Q14524)
[3] = target: human voltage-gated sodium channel Nav1.7 (human) (UniProt Q15858)
[4] = target: human voltage-gated sodium channel Nav1.3 (human) (UniProt Q9NY46)
[5] = target: human voltage-gated sodium channel Nav1.4 (human) (UniProt P35499); remark: listed apart in the source
[6] = target: human voltage-gated sodium channel Nav1.5 (human) (UniProt Q14524); remark: listed apart in the source
[7] = target: human voltage-gated sodium channel Nav1.7 (human) (UniProt Q15858); remark: listed apart in the source

Chain of human voltage-gated sodium channel Nav1.5 (human) (Q14524 whole entry): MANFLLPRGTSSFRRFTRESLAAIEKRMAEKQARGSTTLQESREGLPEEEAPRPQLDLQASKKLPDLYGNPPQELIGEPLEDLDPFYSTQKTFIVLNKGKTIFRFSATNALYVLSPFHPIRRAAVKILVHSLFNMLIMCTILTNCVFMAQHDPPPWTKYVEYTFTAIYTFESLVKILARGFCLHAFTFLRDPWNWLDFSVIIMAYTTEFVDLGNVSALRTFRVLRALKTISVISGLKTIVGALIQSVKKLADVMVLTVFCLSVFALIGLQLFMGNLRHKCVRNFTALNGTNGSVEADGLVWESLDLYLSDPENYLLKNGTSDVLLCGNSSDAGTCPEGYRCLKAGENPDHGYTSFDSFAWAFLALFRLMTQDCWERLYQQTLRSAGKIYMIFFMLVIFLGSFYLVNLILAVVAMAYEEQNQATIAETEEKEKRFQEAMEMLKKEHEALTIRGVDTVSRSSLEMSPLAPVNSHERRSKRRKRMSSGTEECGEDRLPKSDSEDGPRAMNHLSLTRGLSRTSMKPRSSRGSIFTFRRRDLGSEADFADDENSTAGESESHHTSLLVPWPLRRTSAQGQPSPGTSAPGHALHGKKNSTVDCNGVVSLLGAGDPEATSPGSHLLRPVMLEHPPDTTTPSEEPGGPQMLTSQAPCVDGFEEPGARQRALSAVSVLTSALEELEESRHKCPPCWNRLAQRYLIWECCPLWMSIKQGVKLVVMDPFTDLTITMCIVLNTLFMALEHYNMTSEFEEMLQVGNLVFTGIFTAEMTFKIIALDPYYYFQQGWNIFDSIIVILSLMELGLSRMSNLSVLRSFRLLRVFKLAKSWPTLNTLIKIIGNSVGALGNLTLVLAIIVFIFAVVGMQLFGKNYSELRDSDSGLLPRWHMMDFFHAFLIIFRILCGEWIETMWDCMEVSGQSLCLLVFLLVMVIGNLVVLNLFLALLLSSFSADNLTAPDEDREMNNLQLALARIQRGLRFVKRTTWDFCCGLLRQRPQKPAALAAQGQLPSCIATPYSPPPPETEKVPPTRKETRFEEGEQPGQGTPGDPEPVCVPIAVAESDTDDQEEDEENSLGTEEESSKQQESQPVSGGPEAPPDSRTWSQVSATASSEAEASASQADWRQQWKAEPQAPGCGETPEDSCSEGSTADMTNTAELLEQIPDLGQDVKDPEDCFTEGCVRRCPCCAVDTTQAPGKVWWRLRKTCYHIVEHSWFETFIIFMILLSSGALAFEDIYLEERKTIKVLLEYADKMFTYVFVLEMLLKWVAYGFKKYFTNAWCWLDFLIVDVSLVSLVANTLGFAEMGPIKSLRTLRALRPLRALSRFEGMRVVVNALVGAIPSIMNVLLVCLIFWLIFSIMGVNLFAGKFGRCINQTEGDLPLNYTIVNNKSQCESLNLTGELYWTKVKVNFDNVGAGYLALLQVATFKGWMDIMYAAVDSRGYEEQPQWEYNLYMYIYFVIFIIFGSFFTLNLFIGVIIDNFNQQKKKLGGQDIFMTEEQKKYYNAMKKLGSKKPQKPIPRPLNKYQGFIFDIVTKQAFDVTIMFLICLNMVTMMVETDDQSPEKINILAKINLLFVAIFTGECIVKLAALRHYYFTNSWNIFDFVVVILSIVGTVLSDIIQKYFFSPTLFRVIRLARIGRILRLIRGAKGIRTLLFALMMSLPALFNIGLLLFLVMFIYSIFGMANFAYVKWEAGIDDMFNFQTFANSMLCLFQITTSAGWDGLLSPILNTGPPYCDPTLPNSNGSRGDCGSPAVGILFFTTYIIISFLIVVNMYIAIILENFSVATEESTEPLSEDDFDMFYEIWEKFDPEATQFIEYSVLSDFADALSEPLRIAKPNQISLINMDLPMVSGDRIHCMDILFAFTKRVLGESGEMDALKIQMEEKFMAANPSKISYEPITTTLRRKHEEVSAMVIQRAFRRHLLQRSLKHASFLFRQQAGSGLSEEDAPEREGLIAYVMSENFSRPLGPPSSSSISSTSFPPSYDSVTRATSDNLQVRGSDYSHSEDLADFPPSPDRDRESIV
Chain of human voltage-gated sodium channel Nav1.7 (human) (Q15858 whole entry): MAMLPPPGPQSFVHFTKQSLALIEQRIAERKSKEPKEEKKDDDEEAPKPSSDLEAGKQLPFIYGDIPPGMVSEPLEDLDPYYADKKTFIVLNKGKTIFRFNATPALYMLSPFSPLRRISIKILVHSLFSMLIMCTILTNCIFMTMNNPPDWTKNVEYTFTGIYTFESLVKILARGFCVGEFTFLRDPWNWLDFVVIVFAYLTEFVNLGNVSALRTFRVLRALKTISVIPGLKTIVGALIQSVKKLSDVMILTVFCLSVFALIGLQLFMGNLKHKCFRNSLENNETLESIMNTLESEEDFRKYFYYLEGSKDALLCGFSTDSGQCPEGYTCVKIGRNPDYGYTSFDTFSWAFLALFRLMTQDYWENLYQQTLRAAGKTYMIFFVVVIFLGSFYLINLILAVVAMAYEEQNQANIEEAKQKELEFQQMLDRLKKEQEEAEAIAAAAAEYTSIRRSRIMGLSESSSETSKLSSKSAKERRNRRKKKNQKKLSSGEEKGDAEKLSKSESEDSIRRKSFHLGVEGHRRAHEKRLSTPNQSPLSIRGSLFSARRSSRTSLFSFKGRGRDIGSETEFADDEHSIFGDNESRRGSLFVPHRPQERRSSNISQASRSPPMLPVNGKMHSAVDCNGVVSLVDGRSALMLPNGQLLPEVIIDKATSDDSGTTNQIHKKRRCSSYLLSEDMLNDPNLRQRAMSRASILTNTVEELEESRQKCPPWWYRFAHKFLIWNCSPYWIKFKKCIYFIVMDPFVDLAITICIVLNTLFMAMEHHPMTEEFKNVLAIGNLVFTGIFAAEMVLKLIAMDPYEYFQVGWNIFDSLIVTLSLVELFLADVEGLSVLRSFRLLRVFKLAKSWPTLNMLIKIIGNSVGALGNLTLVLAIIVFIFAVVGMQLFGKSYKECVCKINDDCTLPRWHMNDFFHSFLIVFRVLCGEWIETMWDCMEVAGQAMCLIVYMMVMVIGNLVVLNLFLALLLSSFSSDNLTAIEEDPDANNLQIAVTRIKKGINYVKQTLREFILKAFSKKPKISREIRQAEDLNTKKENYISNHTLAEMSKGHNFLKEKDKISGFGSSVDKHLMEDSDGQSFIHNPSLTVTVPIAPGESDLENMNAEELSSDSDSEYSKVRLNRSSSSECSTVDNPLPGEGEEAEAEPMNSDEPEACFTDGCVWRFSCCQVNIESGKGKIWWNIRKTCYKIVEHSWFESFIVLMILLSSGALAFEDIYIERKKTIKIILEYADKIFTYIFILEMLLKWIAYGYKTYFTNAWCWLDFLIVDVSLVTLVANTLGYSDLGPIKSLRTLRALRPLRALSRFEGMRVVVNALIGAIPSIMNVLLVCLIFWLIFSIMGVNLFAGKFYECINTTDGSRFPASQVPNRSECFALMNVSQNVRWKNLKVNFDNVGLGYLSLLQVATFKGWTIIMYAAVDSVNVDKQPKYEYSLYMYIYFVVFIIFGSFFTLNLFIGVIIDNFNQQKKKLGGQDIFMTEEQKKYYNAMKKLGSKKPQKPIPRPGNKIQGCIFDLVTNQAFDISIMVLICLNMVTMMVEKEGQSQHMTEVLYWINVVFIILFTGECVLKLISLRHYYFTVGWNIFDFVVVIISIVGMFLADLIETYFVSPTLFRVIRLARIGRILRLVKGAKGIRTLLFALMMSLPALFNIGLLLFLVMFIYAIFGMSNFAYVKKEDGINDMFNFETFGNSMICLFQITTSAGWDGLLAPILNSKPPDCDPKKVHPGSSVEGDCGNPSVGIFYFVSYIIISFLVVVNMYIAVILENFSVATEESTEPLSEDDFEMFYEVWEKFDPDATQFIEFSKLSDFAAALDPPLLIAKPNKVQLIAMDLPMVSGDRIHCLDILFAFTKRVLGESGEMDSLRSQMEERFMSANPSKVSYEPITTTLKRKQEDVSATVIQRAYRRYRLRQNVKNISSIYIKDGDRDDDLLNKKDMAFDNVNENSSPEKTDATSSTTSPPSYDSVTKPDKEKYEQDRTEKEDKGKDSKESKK

Row | Substance | PX hNav1.4 Tonic IC50 [1] [µM] | PX hNav1.5 Tonic IC50 [2] [µM] | PX hNav1.7 Tonic IC50 [3] [µM] | also measured
1 | [Nle6; Pra11; Glu20]JzTx-V(1-29) (peptide) | 4.22 | 3.55 | 0.0184 | –
2 | [Nle6; Pra11; Glu20; Tyr28]JzTx-V(1-29) (peptide) | 0.825 | 2.46 | 0.00128 | –
3 | [Nle6; Pra14; Glu20; Tyr28]JzTx-V(1-29) (peptide) | 0.707 | 3.69 | 0.00176 | –
4 | [Nva7;Glu20;Tyr28]JzTx-V(1-29) (peptide) | – | – | – | IC50 (IonWorks Quattro) [4]: > 7 µM; IC50 (IonWorks Quattro) [5]: > 7 µM; IC50 (IonWorks Quattro) [6]: > 7 µM; IC50 (IonWorks Quattro) [7]: 4.5 µM
5 | [Nle6; Pra14; Glu20]JzTx-V(1-29) (peptide) | 1.66 | 4.57 | 0.00716 | –
6 | [Nle6;Pra11;Glu20;Trp29]JzTx-V(1-29) (peptide) | – | – | – | IC50 (IonWorks Quattro) [3]: 0.026 µM
7 | [Nle6; AzK11; Glu20; Trp29]JzTx-V(1-29) (peptide) | – | – | 0.435 | –
8 | [Cit7;Glu20;Tyr28]JzTx-V(1-29) (peptide) | – | – | – | IC50 (IonWorks Quattro) [4]: > 7 µM; IC50 (IonWorks Quattro) [5]: > 7 µM; IC50 (IonWorks Quattro) [6]: > 7 µM; IC50 (IonWorks Quattro) [7]: 5.8 µM
